The values below come from patent publication US5444153, “Variants of PAI-2” (Biotech Australia Pty Limited, dated 1995).

Numbering of substitutions follows the chain as printed.

Holding throughout (assay): incubation of the purified proteins; SDS-PAGE and western blot with anti-PAI-2
The target in experiment [1] is single chain t-PA (American Diagnostica) (Homo sapiens (Human), UniProt P00750).
The target of experiment [2] is u-PA (Behring) (Homo sapiens (Human), UniProt P00749).
Experiment [3] concerns the target two chain t-PA (American Diagnostica) (Homo sapiens (Human), UniProt P00750).

B1: PAI-2 deletion variant Δ74-96 (as expressed from pBTA829) (other)
chain: MEDLCVANTLFALNLFKHLAKASPTQNLFLSPWSISSTMAMVYMGSRGSTEDQMAKVLQFNEVGANAVTPMTPAQAADKIHSSFRSLSSAINASTGNYLLESVNKLFGEKSASFREEYIRLCQKYYSSEPQAVDFLECAEEARKKINSWVKTQTKGKIPNLLPEGSVDGDTRMVLVNAVYFKGKWKTPFEKKLNGLYPFRVNSAQRTPVQMMYLREKLNIGYIEDLKAQILELPYAGDVSMFLLLPDEIADVSTGLELLESEITYDKLNKWTSKDKMAEDEVEVYIPQFKLEEHYELRSILRSMGMEDAFNKGRANFSGMSERNDLFLSEVFHQAMVDVNEEGTEAAAGTGGVMTGRTGHGGPQFVADHPFLFLIMHKITNCILFFGRFSSP
Consider B1, for which the binding result in experiment [1], in experiment [2] and in experiment [3] was “binds” each time.

B2: native PAI-2 (as expressed from pBTA641) (other)
chain: MEDLCVANTLFALNLFKHLAKASPTQNLFLSPWSISSTMAMVYMGSRGSTEDQMAKVLQFNEVGANAVTPMTPENFTSCGFMQQIQKGSYPDAILQAQAADKIHSSFRSLSSAINASTGNYLLESVNKLFGEKSASFREEYIRLCQKYYSSEPQAVDFLECAEEARKKINSWVKTQTKGKIPNLLPEGSVDGDTRMVLVNAVYFKGKWKTPFEKKLNGLYPFRVNSAQRTPVQMMYLREKLNIGYIEDLKAQILELPYAGDVSMFLLLPDEIADVSTGLELLESEITYDKLNKWTSKDKMAEDEVEVYIPQFKLEEHYELRSILRSMGMEDAFNKGRANFSGMSERNDLFLSEVFHQAMVDVNEEGTEAAAGTGGVMTGRTGHGGPQFVADHPFLFLIMHKITNCILFFGRFSSP
Take B2: the binding result in experiment [1] and in experiment [3] was “binds” throughout.

B3: second form of native PAI-2 (alternative native PAI-2, expressed from pBTA 683) (other)
chain: B2 chain with N120D, N404K, S413C
In the case of B3, the binding result in experiment [1] and in experiment [3] was “binds” each time.
